Results reported in paper PMC8240970, “Orally delivered polycurcumin responsive to bacterial reduction for targeted therapy of inflammatory bowel disease” (Drug Delivery, 2017).
Marks after values point to notes of the source that are not given here.

Assays:
Caco-2 cells [1] = test: In vitro cytotoxicity by MTT assay; conditions: 1 to 100 μg/mL Cur, 2 h incubation
Protocol: In vitro cytotoxicity of PCur and Cur solution was assessed in Caco-2 cells by MTT assay. Caco-2 cells were seeded at a density of 1 × 10^5 cells/mL in 100 μL DMEM culture medium in a 96-well plate at 37 °C and 5% CO2. After 24 h of incubation, Caco-2 cells were exposed to Cur and PCur solution with different Cur concentrations for 2 h. Meanwhile, serum-free medium incubation without drug was utilized as a control. MTT solution (20 μL, 5 mg/mL in PBS) was then added to each well, and the cells were further incubated for 4 h. The supernatant was removed and 100 μL of DMSO was introduced to each well to dissolve formazan crystals. Optical density (OD) was measured with a microplate reader (Thermo Scientific, Waltham, MA) at 570 nm. The experiments were repeated at least four times. Cell viability (%) was calculated as the ratio of OD in test samples to OD in control samples.

Caco-2 cells [2] = test: LDH release assay; conditions: 25 μg/mL Cur, within 2 h, versus control
Protocol: A lactate dehydrogenase (LDH) assay kit (Beyotime, Haimen, China) was used to determine the ability of PCur to destroy cell membranes. Briefly, Caco-2 cells seeded in a 96-well plate were incubated with Cur solution and PCur at 25 μg/mL concentration of Cur for 2 h, and serum-free medium was used as a control. After 1 h of incubation, 20 μL LDH release medium was added, followed by 1 h of co-incubation. One hundred and twenty microliter supernatant was transferred to a new plate at a determined time interval, followed by the addition of 60 μL LDH test medium and incubated for 30 min with gentle shaking. Finally, the absorption was measured at 490 nm on a microplate reader (Bio-Rad 500, Hercules, CA).

IL-6 = IL-6 level in colonic tissue by ELISA, DSS-induced IBD mice; type: in vivo, female C57BL/6 mice; conditions: oral, Cur 50 mg/kg
Protocol: (§1) Animal experiments were performed in female C57BL/6 mice (eight weeks, 18–20 g). Colitis was induced by feeding mice with a 3% (wt./vol) DSS solution as drinking water for seven days. The daily evaluation of mice was based on changes in body weight and development of the clinical symptoms of colitis. Disease activity index (DAI) was calculated according to the parameter previously reported (Li et al., [2015]). […] The dosage of Cur was set at 50 mg/kg. Mice were sacrificed on day 7, and histological assessment of colonic inflammation was carried out by hematoxylin and eosin (H&E) staining of 5 μm colonic tissue sections, observed by microscopy (×20 magnification). The samples were scored for inflammatory infiltration (0–3), epithelial abnormality (0–3) and crypt damage (0–3) and then the values of the three variables were summed as an indicator of inflamed degree (Magro et al., [2013]). The levels of IL-6 and TNF-α in homogenized colonic tissue were measured by quantitative enzyme-linked immunosorbent assay (ELISA) kits according to manufacturer’s instructions (R&D Systems Inc., Minneapolis, MN). The final values of IL-6 and TNF-α were expressed as pg/mg or ng/mg protein (Qiao et al., [2014]).

TNF-α = TNF-α level in colonic tissue by ELISA, DSS-induced IBD mice; type: in vivo, female C57BL/6 mice; conditions: oral, Cur 50 mg/kg
Protocol: as §1

DSS-induced IBD = test: Pharmacodynamics in a murine DSS-induced IBD model (body weight, DAI, colon length, histology); type: in vivo, female C57BL/6 mice; conditions: for disease activity index (DAI) / recovery of shortened colon length / weight loss: 3% DSS for seven days, daily gavage, Cur 50 mg/kg; for weight loss: versus DSS or Cur suspension
Protocol: as §1, with “[2013]).” for “[2013]). The levels of IL-6 and TNF-α in homogenized colonic tissue were measured by quantitative enzyme-linked immunosorbent assay (ELISA) kits according to manufacturer’s instructions (R&D Systems Inc., Minneapolis, MN). The final values of IL-6 and TNF-α were expressed as pg/mg or ng/mg protein (Qiao et al., [2014]).”

Caco-2 cell monolayer = test: Transcellular study, apparent permeability coefficient; type: in vitro ADME
Protocol: A 400 μL of culture medium was added to the apical (AP) side, and 600 μL was added to the basolateral (BL) side. The medium in both the AP and BL sides was changed every two days for the first week and every day thereafter. After 21 days of incubation, the integrity of the cell monolayers was evaluated by measuring transepithelial electrical resistance (TEER) values using a Millicell® electrical resistance system (Millipore, Billerica, MA). When the TEER value of inserts exceeded […], indicating cell monolayers were integrated and tight junctions were intact, they were selected for further transport studies. For transcellular research, the culture medium in the AP and BL side was removed and changed by HBSS. […] Six hundred microliter of fresh HBSS was added to the BL side. […] One hundred microliter of sample was mixed with 50 μL chloramphenicol (IS) and 50 μL acetonitrile, vortexed and centrifuged. The concentration of Cur in supernatant was determined by UPLC–MS/MS. At the end of the experiment, TEER values were assayed to estimate the integrity of the cell monolayers. The apparent permeability coefficient (Papp) for Cur was calculated according to the following equation: Papp=(dQ/dt)/(A×C0) where the dQ/dt was the drug permeation rate, A was the surface area of polycarbonate membrane and C0 was the initial concentration of Cur in AP side.

[3] = In vitro release of Cur from PCur in pH 7.4 PBS with or without GSH; type: physicochemical
[4] = Drug-loading content (Cur content in PCur); type: physicochemical
[5] = Particle size and zeta potential by dynamic light scattering; type: physicochemical; conditions: in water, 25 °C
[6] = In vitro stability testing of PCur (size by DLS, morphology by TEM); type: physicochemical; conditions: 37 °C
Excerpt: A small portion of solution was collected at predetermined time points to measure the size distribution of PCur conjugate by DLS.

[7] = In vitro release of PCur under different pH conditions; type: physicochemical
Protocol: Effect of pH values on drug release was also evaluated in the following buffers: hydrochloric acid/potassium chloride (pH 1.2), acetic acid/sodium acetate (pH 6.5) and PBS (pH 7.4). Buffer selection was based on the normal variations of the pH in the GIT from the stomach (pH 1.5) and the proximal small intestine (pH 6.0–6.8) to the ileocecal region (pH 7.3) (Hua et al., [2015]). One milliliter of sample (containing 1.2 mg of Cur) was placed in a dialysis bag, immersed into each media containing 0.1% (w/v) Tween 80 for drug release.

MPO activity = test: Myeloperoxidase (MPO) activity in colon of DSS-induced IBD mice; type: in vivo, female C57BL/6 mice; conditions: oral, Cur 50 mg/kg
Protocol: as §1, with “[2013]). Neutrophil infiltration into the colon can be quantified by measuring MPO activity. […]” for “[2013]).”, “homogenate was then sonicated for 10 s, freeze-thawed three times,” for “levels of IL-6”, “centrifuged at 12 000 rpm for 15 min. The supernatant was then added to 1 mg/mL o-dianisidine hydrochloride and 0.0005% hydrogen peroxide, and the change” for “TNF-α”, “absorbance at 460 nm was measured.” for “homogenized colonic tissue were measured by quantitative enzyme-linked immunosorbent assay (ELISA) kits according to manufacturer’s instructions (R&D Systems Inc., Minneapolis, MN). The final values of IL-6 and TNF-α were expressed as pg/mg or ng/mg protein (Qiao et al., [2014]).”

MDA content = test: Malondialdehyde (MDA) content of colon of DSS-induced IBD mice; type: in vivo, female C57BL/6 mice; conditions: oral, Cur 50 mg/kg
Protocol: as §1, with “Lipid peroxidation was evaluated by measuring the MDA content” for “The levels”, “the colon” for “IL-6 and TNF-α in homogenized colonic tissue were measured by quantitative enzyme-linked immunosorbent assay (ELISA) kits”, “standard procedure protocol described in MDA Assay Kit (Beyotime, Haimen, China). In short, the colorimetric determination of MDA is based on the reaction of the reactive aldehyde with thiobarbituric acid at low pH (2–3) and temperature of 95 °C for 45 min.” for “manufacturer’s instructions (R&D Systems Inc., Minneapolis, MN).”, “pinkish resultant was extracted by n-butanol,” for “final values of IL-6”, “the absorbance was determined at 535 and 520 nm spectrophotometrically. […]” for “TNF-α were expressed as pg/mg or ng/mg protein (Qiao et al., [2014]).”

[8] = Pharmacokinetic study after oral administration; set-up: species or system Sprague–Dawley (SD) rats; conditions: rat, in vivo, 50 mg/kg
Protocol: Pharmacokinetics of PCur and Cur suspension were tested in SD rats, which were randomly divided into two study groups with six in each group. […] Three hundred microliter of blood samples were collected at 5, 10, 15, 30 and 45 min, 1, 2, 4, 8, 12 and 24 h post oral gavage and centrifuged at 12 000 rpm for 10 min. The supernatant plasma was collected and stored at −20 °C for UPLC–MS/MS analysis. The concentration of Cur was determined by a Waters ACQUITY UPLC system using a Xevo Triple Quadrupole MS equipped with an electrospray ionization (ESI) interface (Waters Co., Milford, MA). One hundred microliter plasma was mixed with 50 μL chloramphenicol (IS) and 50 μL acetonitrile, followed by vortexing for 3 min, and centrifuged at 12 000 rpm for 10 min. […] An aliquot of 5 μL was injected into the UPLC–MS/MS for analysis. Pharmacokinetic parameters were calculated using DAS 2.1 software (BioGuider Co., Shanghai, China).

COc1cc(/C=C/C(=O)CC(=O)/C=C/c2ccc(O)c(OC)c2)ccc1O [Cur solution, Curcumin]
cellular viability (Caco-2 cells [1]): neither Cur solution nor PCur induced any significant changes | LDH leakage (Caco-2 cells [2]): no significant LDH leakage

O=C(O)c1cc(/N=N/c2ccc(S(=O)(=O)Nc3ccccn3)cc2)ccc1O [SSZ, sulfasalazine, reference compound]
inhibition of the production of IL-6 in colonic tissue (IL-6): strongest efficacy | inhibition of the production of TNF-α in colonic tissue (TNF-α): strongest efficacy | disease activity index (DAI) (DSS-induced IBD): successfully mitigated | recovery of shortened colon length (DSS-induced IBD): strongest efficacies | weight loss (DSS-induced IBD): less weight loss

PEG-ss-curcumin [PCur]
apparent permeability coefficient (Papp) of Cur (Caco-2 cell monolayer): 2.38 ± 0.29 × 10^−6 cm/s | Cur released ([3]; pH 7.4 PBS with 10 mM GSH, in 2 h): ~30% | Cur released ([3]; pH 7.4 PBS with 10 mM GSH, within 24 h): 53% | Cur released ([3]; pH 7.4 buffer, without or with 10 μM GSH, first 2 h): less than 10% | Cur released ([3]; pH 7.4 buffer, without or with 10 μM GSH, within 24 h): approximately 15% | loading content ([4]; calculated from integrated areas of 1H NMR spectra): 12.5% | loading content ([4]; determined by fluorescence spectra): ~14.6% | average particle size ([5]; DLS): 134.4 ± 4.2 nm | Zeta potential [5]: −3.3 ± 1.2 mV | change of particle size distribution ([6]; pH 1.2 and pH 7.4 PBS): little change | change of mean diameter ([6]; pH 7.4 PBS with 10 mM GSH): substantially increased | Cur released ([7]; buffer of pH 6.5, 24 h): less than 25% | Cur released ([7]; buffer of pH 6.5, first 2 h): 10% | pH-responsive release characteristic ([7]; pH 7.4, 6.5 and 1.2): No significant pH-responsive release characteristic | inhibition of the production of IL-6 in colonic tissue (IL-6): strongest efficacy | MPO activity in colonic tissue (MPO activity): strongly decreased | inhibition of the production of TNF-α in colonic tissue (TNF-α): strongest efficacy | MDA content in colonic tissue (MDA content): strongly decreased | AUC0–24 h [8]: 202.05 ± 6.72^b h ng/mL | AUC0–∞ [8]: 223.52 ± 5.25^b h ng/mL | AUC(0 − 24) increase relative to Cur suspension [8]: 8.63 times | Cmax [8]: 23.35 ± 0.96^b ng/mL | Cmax relative to Cur suspension [8]: 3.41 fold | MRT0–∞ [8]: 9.60 ± 2.28^a h | T1/2 [8]: 6.77 ± 1.40 h | Tmax [8]: 0.50 ± 0.25^a h | disease activity index (DAI) (DSS-induced IBD): successfully mitigated | recovery of shortened colon length (DSS-induced IBD): strongest efficacies | weight loss (DSS-induced IBD): less weight loss | histological examination of colon (H&E) (DSS-induced IBD; day 7, versus DSS mice receiving PBS or Cur suspension): intact epitheliums, well-defined crypt structures and relatively low levels of neutrophil invasion
